The test addresses T1, HPV16 E6 peptide on HLA-A*02:01 (human).
T1 peptide: TIHDIILECV
Kind of test: Kd or kinetics. The procedure: In this example, the binding activity of the soluble TCR molecule obtained according to Example 2 to the […]-HLA A0201 complex was tested using a BIAcore T200 real-time analysis system. The […]-HLA A0201 complex was prepared by methods well known to those skilled in the art, mainly including purification, renaturation, repurification, and biotinylation. The anti-streptavidin antibody (GenScript) was added to the coupling buffer (10 mM sodium acetate buffer, pH 4.77), and then the antibody was passed through a CMS chip previously activated with EDC and NHS so that the antibody was immobilized on the chip surface, and finally the unreacted activated surface was blocked with a solution of ethanolamine in hydrochloric acid to complete the coupling. The coupling was at a level of about 15,000 RU. A low concentration of streptavidin was allowed to flow through the surface of the chip coated with the antibody, then the […]-HLA A0201 complex was allowed to flow through a detection channel, with the other channel serving as a reference channel. Then 0.05 mM of biotin was allowed to flow through the chip at a flow rate of 10 μL/min for 2 minutes, blocking the remaining binding site for streptavidin.
The kinetic parameters were calculated using the BIAcore Evaluation software to obtain the binding kinetic profiles of the soluble TCR molecules of the present disclosure binding to the […]-HLA A0201 complex, respectively, as shown in FIGS. 7a-7d. […] Also, the binding activity of the soluble TCR molecule of the present disclosure to several complexes of other unrelated antigen short peptides and HLA was also tested by the method.

B1: TCR1 (TCR, V domains shown)
Valpha: AQKVTQAQTEISVVEKEDVTLDCVYETRDTTYYLFWYKQPPSGELVFLIRRNSFDEQNEISGRYSWNFQKSTSSFNFTITASQVVDSAVYFCALRAGANNLFFGTGTRLTVIP
Vbeta: NAGVTQTPKFQVLKTGQSMTLQCAQDMNHNSMYWYRQDPGMGLRLIYYSASEGTTDKGEVPNGYNVSRLNKREFSLRLESAAPSQTSVYFCASGPWGSSGNTIYFGEGSWLTVV
For the molecule B1, the binding result was “recognises”.

B2: TCR4 (TCR, V domains shown)
Valpha: AQKVTQAQTEISVVEKEDVTLDCVYETRDTTYYLFWYKQPPSGELVFLIRRNSFDEQNEISGRYSWNFQKSTSSFNFTITASQVVDSAVYFCALRAGAWPMKFGTGTRLTVIP
Vbeta: NAGVTQTPKFQVLKTGQSMTLQCAQDMNHNSMYWYRQDPGMGLRLIYYSASEGTTDKGEVPNGYNVSRLNKREFSLRLESAAPSQTSVYFCASGPWGSSGNTIYFGEGSWLTVV
With B2, the binding result is “recognises”.

B3: TCR3 (TCR, V domains shown)
Valpha: AQKVTQAQTEISVVEKEDVTLDCVYETRDTTYYLFWYKQPPSGELVFLIRRNSFDEQNEISGRYSWNFQKSTSSFNFTITASQVVDSAVYFCALRAGANTPIFGTGTRLTVIP
Vbeta: NAGVTQTPKFQVLKTGQSMTLQCAQDMNHNSMYWYRQDPGMGLRLIYYSASEGTTDKGEVPNGYNVSRLNKREFSLRLESAAPSQTSVYFCASGPWGSSGNTIYFGEGSWLTVV
B3: the binding result is listed as “recognises”.

B4: TCR2 (TCR, V domains shown)
Valpha: AQKVTQAQTEISVVEKEDVTLDCVYETRDTTYYLFWYKQPPSGELVFLIRRNSFDEQNEISGRYSWNFQKSTSSFNFTITASQVVDSAVYFCALRAGANLPVFGTGTRLTVIP
Vbeta: NAGVTQTPKFQVLKTGQSMTLQCAQDMNHNSMYWYRQDPGMGLRLIYYSASEGTTDKGEVPNGYNVSRLNKREFSLRLESAAPSQTSVYFCASGPWGSSGNTIYFGEGSWLTVV
Turning to B4, the binding result is “recognises”.

Values taken from patent publication US20240002464A1 (published 2024).
